We go through 2 molecules from patent US20240158497A1 (published 2024).

Assay [1] has as its target T1, mutant human LEPR (Y1141F) on HEK293.STAT3.Luc.GP130.hLEPR (Y1141F) cells (human, UniProt P48357 22-1165).
T1 sequence (looked up): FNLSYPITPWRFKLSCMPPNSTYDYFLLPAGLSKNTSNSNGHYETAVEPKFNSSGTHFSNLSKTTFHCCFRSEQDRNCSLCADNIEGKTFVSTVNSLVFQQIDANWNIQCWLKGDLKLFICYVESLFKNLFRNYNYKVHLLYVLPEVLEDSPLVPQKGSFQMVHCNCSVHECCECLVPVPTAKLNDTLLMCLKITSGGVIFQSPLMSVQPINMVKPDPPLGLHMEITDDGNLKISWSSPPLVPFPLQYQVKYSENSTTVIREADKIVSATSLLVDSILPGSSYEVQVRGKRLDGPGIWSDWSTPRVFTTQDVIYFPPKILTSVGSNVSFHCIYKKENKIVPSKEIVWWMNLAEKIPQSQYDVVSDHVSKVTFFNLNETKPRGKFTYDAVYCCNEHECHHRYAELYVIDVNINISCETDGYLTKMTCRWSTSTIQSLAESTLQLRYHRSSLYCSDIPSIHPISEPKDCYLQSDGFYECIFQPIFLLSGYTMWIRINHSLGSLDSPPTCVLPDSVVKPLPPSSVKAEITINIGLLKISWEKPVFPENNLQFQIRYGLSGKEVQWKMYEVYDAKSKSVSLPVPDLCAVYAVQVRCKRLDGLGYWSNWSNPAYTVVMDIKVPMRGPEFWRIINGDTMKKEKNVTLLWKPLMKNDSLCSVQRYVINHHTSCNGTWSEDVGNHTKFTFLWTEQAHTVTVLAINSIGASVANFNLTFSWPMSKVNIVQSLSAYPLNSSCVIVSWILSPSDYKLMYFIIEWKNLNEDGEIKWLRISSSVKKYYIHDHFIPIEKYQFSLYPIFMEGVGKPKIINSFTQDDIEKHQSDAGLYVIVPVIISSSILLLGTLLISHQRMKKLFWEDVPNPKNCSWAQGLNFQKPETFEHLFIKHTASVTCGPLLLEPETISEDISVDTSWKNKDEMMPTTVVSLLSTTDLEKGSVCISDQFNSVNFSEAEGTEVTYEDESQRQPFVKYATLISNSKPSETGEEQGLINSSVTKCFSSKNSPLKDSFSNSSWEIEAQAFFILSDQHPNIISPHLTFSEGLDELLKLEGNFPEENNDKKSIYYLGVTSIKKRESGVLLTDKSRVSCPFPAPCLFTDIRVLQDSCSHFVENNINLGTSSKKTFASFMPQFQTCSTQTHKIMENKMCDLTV
The assay is described as follows: cell-based or functional assay.

Assay [2] concerns the target T2, extracellular domain of human LEPR, GPI-anchored, on HEK293/hLEPR-GPI cells (human, UniProt P48357 22-839, GPI anchor at the C-terminus ; GPI anchor at the C-terminus, added through the carboxypeptidase M signal peptide. The N-terminal myc-myc tag is not written.).
T2 sequence: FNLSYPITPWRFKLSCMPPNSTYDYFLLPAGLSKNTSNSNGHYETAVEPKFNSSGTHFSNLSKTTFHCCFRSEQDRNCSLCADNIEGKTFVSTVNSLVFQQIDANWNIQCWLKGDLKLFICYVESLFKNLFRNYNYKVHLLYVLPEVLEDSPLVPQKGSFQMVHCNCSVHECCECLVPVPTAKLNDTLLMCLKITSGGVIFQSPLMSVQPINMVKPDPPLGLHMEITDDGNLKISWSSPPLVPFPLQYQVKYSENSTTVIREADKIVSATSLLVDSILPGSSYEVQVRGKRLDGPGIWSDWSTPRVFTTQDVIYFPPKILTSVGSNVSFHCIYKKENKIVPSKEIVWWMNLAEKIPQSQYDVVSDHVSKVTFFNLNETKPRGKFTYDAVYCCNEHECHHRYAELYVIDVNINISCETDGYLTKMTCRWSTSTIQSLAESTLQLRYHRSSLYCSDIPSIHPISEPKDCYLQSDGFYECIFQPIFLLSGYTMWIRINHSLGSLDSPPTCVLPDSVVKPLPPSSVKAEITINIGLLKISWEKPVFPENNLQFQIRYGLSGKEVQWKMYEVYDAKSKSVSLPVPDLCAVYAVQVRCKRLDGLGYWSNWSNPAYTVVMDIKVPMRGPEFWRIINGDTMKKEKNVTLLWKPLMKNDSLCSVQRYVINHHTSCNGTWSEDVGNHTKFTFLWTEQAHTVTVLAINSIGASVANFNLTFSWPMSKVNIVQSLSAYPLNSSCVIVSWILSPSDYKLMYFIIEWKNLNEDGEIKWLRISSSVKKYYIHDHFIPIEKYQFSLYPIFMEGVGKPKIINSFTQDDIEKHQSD
Kind of assay: FACS, 200 nM antibody on HEK293/hLEPR-GPI cells, no Leptin. On the procedure:
For the FACS analysis, 0.5×10^6 cells/well of HEK293 parental cells, HEK293/Stat3-luc/gp130-2 X Sort cells, and HEK293/hLEPR-GPI cells, were incubated with 200 nM of the conventional antibodies against either GP130 or LEPR or with LEPRxGP130 bispecific antibodies, along with isotype control antibodies at 4° C. in PBS (without calcium and magnesium) containing 2% FBS.
Cells were fixed using BD CytoFix™ (Becton Dickinson, #554655) and analyzed on an IQue® (Intellicyt) Flow Cytometer. Unstained and secondary antibody alone controls were also tested for all cell lines. The results were analyzed using ForeCyt® (IntelliCyt) and FlowJo version 10 softwares to determine the geometric means of fluorescence for viable cells.
A general note: In flow cytometry, cells or beads pass a laser one at a time.

B1: bsAb21236D (bispecific antibody, V domains shown)
VH 1: QVQLQESGPGLVKPSQTLSLTCTVSGGSISSGGDYWSWIRQLPGKGLEWIGYIYYSGSAYYNPSLKSRGTISIDTSKNQFSLKLTSVTAADTAVYFCVKLRFLEWFLGGWFGPWGQGTLVTVSS
VH 2: QVQLVESGGGLVKPGGSLRLSCAASGFTFSDYYMTWIRQTPGKGLDWVSYISSSGTNKYNADSVKGRFTISRDNAKNSLYLQMNSLRAEDTAVYYCVRDPPWGMDVWGQGTTVTVSS
VL: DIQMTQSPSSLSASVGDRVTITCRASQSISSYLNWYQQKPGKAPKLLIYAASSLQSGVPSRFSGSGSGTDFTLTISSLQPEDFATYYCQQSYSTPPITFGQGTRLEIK
notes: LEPR x GP130 bispecific with common light chain; also called H4H21236D; bsAb21236 (LEPR × GP130)
For the molecule B1, the “EC50 (M), STAT3-luciferase activation of HEK293.STAT3.Luc.GP130.hLEPR (Y1141F) cells, 10 nM leptin” value in assay [1] came out at 2.11e-09 M. Besides, in assay [2], the “Binding Ratio, normalized to unstained sample (FL4-A)” value worked out at 4420 fold.

B2: bsAb21237D (bispecific antibody, V domains shown)
VH 1: EVQLVESGGGLVQPGGSLRLSCAASGFTFSNYGMTWVRQAPGKGLEWVSAITGGGGSTYYSNSVKGRFTISRDNSKNTVYLRMNSVRAEDTAVYYCAKYKWNFVDDWGQGTTVTVSS
VH 2: B1 VH 2
VL: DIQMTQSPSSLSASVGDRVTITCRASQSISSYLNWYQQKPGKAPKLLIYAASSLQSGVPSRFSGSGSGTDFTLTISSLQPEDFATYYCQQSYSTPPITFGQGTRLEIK
notes: LEPR x GP130 bispecific with common light chain; also called H4H21237D; bsAb21237 (LEPR × GP130)
In the case of B2, in assay [1], the “EC50 (M), STAT3-luciferase activation of HEK293.STAT3.Luc.GP130.hLEPR (Y1141F) cells, 10 nM leptin” value was determined as 2.46e-09 M. Also, in assay [2], the “Binding Ratio, normalized to unstained sample (FL4-A)” value came out at 6320 fold.
